Test results published in article PMC3247018 (Journal of molecular biology, 2011).

B2: bacteriophage lambda gpE major capsid protein (natural protein, UniProt P03713 1-341, looked up)
chain: MSMYTTAQLLAANEQKFKFDPLFLRLFFRESYPFTTEKVYLSQIPGLVNMALYVSPIVSGEVIRSRGGSTSEFTPGYVKPKHEVNPQMTLRRLPDEDPQNLADPAYRRRRIIMQNMRDEELAIAQVEEMQAVSAVLKGKYTMTGEAFDPVEVDMGRSEENNITQSGGTEWSKRDKSTYDPTDDIEAYALNASGVVNIIVFDPKGWALFRSFKAVKEKLDTRRGSNSELETAVKDLGKAVSYKGMYGDVAIVVYSGQYVENGVKKNFLPDNTMVLGNTQARGLRTYGCIQDADAQREGINASARYPKNWVTTGDPAREFTMIQSAPLMLLADPDEFVSVQLA

Experiments:
[1] = target: bacteriophage lambda gpNu3 scaffolding protein (bacteriophage lambda) (UniProt P03711); experiment: AUC
[2] = target: B2; experiment: SEC
SEC = target: the molecule itself; experiment: SEC

Question: How did the stoichiometry N [1] turn out when “bacteriophage lambda gpNu3 scaffolding protein (from UniProt P03711-2 1-131) (natural protein)” was run?
Answer: 2

B1: bacteriophage lambda gpNu3 scaffolding protein (natural protein, UniProt P03711-2 1-131, looked up)
chain: MTKETQSTTVSATASQADVTDVVPATEGENASAAQPDVNAQITAAVAAENSRIMGILNCEEAHGREEQARVLAETPGMTVKTARRILAAAPQSAQARSDTALDRLMQGAPAPLAAGNPASDAVNDLLNTPV
Question: Does B1 bind [2]?
Answer: binds

Question: Does B2 bind (SEC)?
Answer: binds
